# Assay results taken from patent US20230111102A1 (published 2023).
# B1: 1ZVH (VHH, SEQ ID NO: 38) produced by Bacillus subtilis Dpr9ΔsigF (VHH)
# VHH: QVQLVESGGGLVQPGGSLRLSCAASGFTFSNDAMTWVRQAPGKALEWVSSITLLGGGIPYYSDTVKGRFTISRDNTKNMLYLQMNSLKPEDTAVYYCAKGFKSDYPRGQGTQVTVSS
# Molecular target: HEWL (lysozyme, derived from egg albumen, FUJIFILM Wako Pure Chemical Corporation) (UniProt P00698 19-147)
# Assay: SPR (Biacore)
# HEWL (lysozyme, derived from egg albumen, FUJIFILM Wako Pure Chemical Corporation), sequence (P00698 19-147): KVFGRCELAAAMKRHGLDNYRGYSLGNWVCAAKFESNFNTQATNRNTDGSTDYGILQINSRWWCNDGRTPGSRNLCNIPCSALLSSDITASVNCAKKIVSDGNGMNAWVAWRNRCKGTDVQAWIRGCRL
binder,measurement,value
B1,Kd,18 nM
